Results from paper PMC3378324.

Assays:
[1] = molecular target: Fyn(R96I)-SH3, 6xHis C-terminal fusion (human) (UniProt P06241); assay: ITC
[2] = molecular target: Fyn(WT)-SH3, 6xHis C-terminal fusion (human) (UniProt P06241); assay: ITC
[3] = molecular target: Nef (Human immunodeficiency virus 1) (UniProt P04324); conditions: cited from earlier work

Sequence of Fyn(WT)-SH3, 6xHis C-terminal fusion (human) (P06241 85-141): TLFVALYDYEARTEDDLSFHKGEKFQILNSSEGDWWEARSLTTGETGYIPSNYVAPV
Sequence of Fyn SH3 SH3 (P06241 79-146): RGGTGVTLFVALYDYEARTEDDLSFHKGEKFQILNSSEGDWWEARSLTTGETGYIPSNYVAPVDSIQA
Sequence of Fyn(R96I)-SH3, 6xHis C-terminal fusion (human) (P06241 86-143 R96I): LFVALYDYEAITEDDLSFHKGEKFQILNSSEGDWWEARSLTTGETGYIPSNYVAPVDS

| Substance | Kd [1] [µM] | Kd [2] [µM] | Kd [3] [µM] |
| --- | --- | --- | --- |
| ALIXPI peptide (Alix residues 737 to 760) (from UniProt Q8WUM4 737-760) | 54 | 160 | – |
| Fyn SH3 SH3 (from UniProt P06241) | – | – | > 20 |
